In the Immune Epitope Database (IEDB) one finds Kd data, which are given here for 25 sequences.

As usually defined, the pKd is the Kd on a negative log10 scale, so that one unit is a factor of ten.

The target of one assay is HLA-A*02:01. Nature of the assay: IEDB peptide-MHC binding, purified MHC/competitive/radioactivity; filed as Kd, often an IC50 or EC50 that approximates it; ≥ and ≤ were set here for values at or beyond the usual limits of such assays.
Another assay has as its target HLA-A*02:07. The assay is described as above.
Setting [1] is: source organism: Hepatitis B virus.
Setting [2] is: source organism: Hepatitis B virus adr4.
Setting [3] is: source organism: Mycobacterium tuberculosis.

pKd: −log10 of the molar value.

For AAPLILSRI, the figures for the pKd with HLA-A*02:01 (source organism: Homo sapiens) and with HLA-A*02:07 (source organism: Homo sapiens) were at most 4.52 and 5.18, respectively.

ALAETSYVKV: the pKd with HLA-A*02:07 (source organism: Homo sapiens) is at most 4.63.

Turning to ALDVYNGLL, the values for the negative-log Kd (pKd) with HLA-A*02:01 (source organism: Homo sapiens) and with HLA-A*02:07 (source organism: Homo sapiens) were 7.02 and 5.22, respectively. Take CILESLFRA: the pKd in the assay with HLA-A*02:01 (source organism: Homo sapiens) was 7.17; in the assay with HLA-A*02:07 (source organism: Homo sapiens), 5.19.

For the sequence GMPEGDLVYV, the pKd in the assay with HLA-A*02:07 (source organism: Homo sapiens) is 5.85. Turning to ILKEPVHGV, the pKd with HLA-A*02:07 (source organism: HIV-1 M:B_MN) is at most 4.52. As for KLPQLCTEL, the pKd in the assay with HLA-A*02:07 (source organism: Human papillomavirus 16) was 5.58. As to LLFFWLDRSV, in the assay with HLA-A*02:07 (source organism: Homo sapiens), the pKd is at most 4.52. On to LLPFVQWFV, for which the values for the pKd with HLA-A*02:01 (setting [1]) and with HLA-A*02:07 (setting [1]) were 8.07 and 7.06, respectively. As to LLWKGEGAVV, the figures for the pKd with HLA-A*02:01 (source organism: HIV-1 M:B_MN) and in the assay with HLA-A*02:07 (source organism: HIV-1 M:B_MN) were 6.95 and 5.38, respectively. With LTDAVKVMDL, the pKd with HLA-A*02:01 (source organism: Homo sapiens) and with HLA-A*02:07 (source organism: Homo sapiens) was at most 4.52 each time. Turning to LVPFVQWFV, the pKd with HLA-A*02:07 (setting [2]) is 5.60.

As for NLDRSNDKV, the pKd in the assay with HLA-A*02:01 (source organism: Homo sapiens) and with HLA-A*02:07 (source organism: Homo sapiens) was at most 4.52 throughout. On to QIPSYKKLI, for which the pKd in the assay with HLA-A*02:01 (source organism: Homo sapiens) and with HLA-A*02:07 (source organism: Homo sapiens) was at most 4.52 in each case. QLDPARDVL: the pKd with HLA-A*02:07 (setting [2]) is at most 4.52.

Consider RLPLVLPAV, for which the results for the pKd with HLA-A*02:01 (setting [3]) and with HLA-A*02:07 (setting [3]) were 8.28 and 8.05, respectively. For the sequence RMPEAAPPV, the negative logarithm of the Kd (pKd) with HLA-A*02:07 (source organism: Homo sapiens) is 6.26. Consider SLDLASLIL, for which the negative logarithm of the Kd (pKd) with HLA-A*02:01 (source organism: Homo sapiens) was 5.79; with HLA-A*02:07 (source organism: Homo sapiens), 5.81. For the sequence SLDSWWTSV, the figures for the negative-log Kd (pKd) with HLA-A*02:01 (setting [1]) and with HLA-A*02:07 (setting [1]) were 7.30 and 6.63, respectively. With TLPSWATEDT, the pKd in the assay with HLA-A*02:01 (source organism: Homo sapiens) and in the assay with HLA-A*02:07 (source organism: Homo sapiens) was at most 4.52 throughout. WVDLRSLFL: the pKd was 4.78 with HLA-A*02:01 (source organism: HIV-1 M:B_MN) and at most 4.57 in the assay with HLA-A*02:07 (source organism: HIV-1 M:B_MN). Regarding YLDLALMSV, the pKd with HLA-A*02:01 (setting [3]) is 8.25; in the assay with HLA-A*02:07 (setting [3]) it was 7.36. For the sequence YLQLVFGIEV, the pKd in the assay with HLA-A*02:07 (source organism: Homo sapiens) was 5.98.

As for YMDDVVLGV, the pKd with HLA-A*02:07 (setting [1]) is 7.04. Regarding YTAFTIPSI, the pKd with HLA-A*02:07 (source organism: HIV-1 M:B_MN) is at most 4.52.
